The values below come from publication PMC7560827, “Immunodominant proteins P1 and P40/P90 from human pathogen Mycoplasma pneumoniae” (Nature Communications, 2020).

Conditions in all cases: both partners purified
For experiment [1], the target named is P40/P90N (short construct of P40/P90, residues Ser23-Val1003) (Mycoplasma pneumoniae, UniProt Q50341 23-1003). As to the kind of experiment: SEC.
The target of experiment [2] is P40/P90 long construct (residues 23-1114) (Mycoplasma pneumoniae, UniProt Q50341 23-1114). Briefly: SEC.
Experiment [3] has as its target T1, P90N polypeptide (Ala446 to the C-end of P40/P90N) (Mycoplasma pneumoniae, UniProt Q50341 446-1003).
T1 construct: source: E. coli B834 (DE3), cleavage product in purified P40/P90N samples
T1 sequence: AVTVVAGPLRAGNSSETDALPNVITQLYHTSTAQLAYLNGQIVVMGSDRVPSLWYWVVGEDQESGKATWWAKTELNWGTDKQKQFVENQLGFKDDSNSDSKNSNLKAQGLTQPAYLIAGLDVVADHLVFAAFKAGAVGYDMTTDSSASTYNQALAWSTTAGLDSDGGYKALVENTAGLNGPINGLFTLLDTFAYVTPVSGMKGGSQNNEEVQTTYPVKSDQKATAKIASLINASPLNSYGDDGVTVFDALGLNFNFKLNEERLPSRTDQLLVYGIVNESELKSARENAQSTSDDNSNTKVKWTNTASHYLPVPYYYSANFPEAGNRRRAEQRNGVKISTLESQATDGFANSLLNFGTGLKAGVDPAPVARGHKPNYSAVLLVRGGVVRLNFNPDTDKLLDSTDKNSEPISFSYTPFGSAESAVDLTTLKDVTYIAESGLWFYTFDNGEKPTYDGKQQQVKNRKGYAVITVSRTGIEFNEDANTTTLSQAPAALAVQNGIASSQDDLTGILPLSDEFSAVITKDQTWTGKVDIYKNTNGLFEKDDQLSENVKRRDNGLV
Briefly: SEC-MALS. For orientation: Size exclusion chromatography separates by hydrodynamic size, large species first.

B1: P1 extracellular region (residues Thr29-Asp1521) (domain or fragment)
chain: TVVGHFTSTTTTLKRQQFSYTRPDEVALRHTNAINPRLTPWTYRNTSFSSLPLTGENPGAWALVRDNSAKGITAGSGSQQTTYDPTRTEAALTASTTFALRRYDLAGRALYDLDFSKLNPQTPTRDQTGQITFNPFGGFGLSGAAPQQWNEVKNKVPVEVAQDPSNPYRFAVLLVPRSVVYYEQLQRGLGLPQQRTESGQNTSTTGAMFGLKVKNAEADTAKSNEKLQGAEATGSSTTSGSGQSTQRGGSSGDTKVKALKIEVKKKSDSEDNGQLQLEKNDLANAPIKRSEESGQSVQLKADDFGTALSSSGSGGNSNPGSPTPWRPWLATEQIHKDLPKWSASILILYDAPYARNRTAIDRVDHLDPKAMTANYPPSWRTPKWNHHGLWDWKARDVLLQTTGFFNPRRHPEWFDGGQTVADNEKTGFDVDNSENTKQGFQKEADSDKSAPIALPFEAYFANIGNLTWFGQALLVFGGNGHVTKSAHTAPLSIGVFRVRYNATGTSATVTGWPYALLFSGMVNKQTDGLKDLPFNNNRWFEYVPRMAVAGAKFVGRELVLAGTITMGDTATVPRLLYDELESNLNLVAQGQGLLREDLQLFTPYGWANRPDLPIGAWSSSSSSSHNAPYYFHNNPDWQDRPIQNVVDAFIKPWEDKNGKDDAKYIYPYRYSGMWAWQVYNWSNKLTDQPLSADFVNENAYQPNSLFAAILNPELLAALPDKVKYGKENEFAANEYERFNQKLTVAPTQGTNWSHFSPTLSRFSTGFNLVGSVLDQVLDYVPWIGNGYRYGNNHRGVDDITAPQTSAGSSSGISTNTSGSRSFLPTFSNIGVGLKANVQATLGGSQTMITGGSPRRTLDQANLQLWTGAGWRNDKASSGQSDENHTKFTSATGMDQQGQSGTSAGNPDSLKQDNISKSGDSLTTQDGNAIDQQEATNYTNLPPNLTPTADWPNALSFTNKNNAQRAQLFLRGLLGSIPVLVNRSGSDSNKFQATDQKWSYTDLHSDQTKLNLPAYGEVNGLLNPALVETYFGNTRAGGSGSNTTSSPGIGFKIPEQNNDSKATLITPGLAWTPQDVGNLVVSGTTVSFQLGGWLVTFTDFVKPRAGYLGLQLTGLDASDATQRALIWAPRPWAAFRGSWVNRLGRVESVWDLKGVWADQAQSDSQGSTTTATRNALPEHPNALAFQVSVVEASAYKPNTSSGQTQSTNSSPYLHLVKPKKVTQSDKLDDDLKNLLDPNQVRTKLRQSFGTDHSTQPQPQSLKTTTPVFGTSSGNLSSVLSGGGAGGGSSGSGQSGVDLSPVEKVSGWLVGQLPSTSDGNTSSTNNLAPNTNTGNDVVGVGRLSESNAAKMNDDVDGIVRTPLAELLDGEGQTADTGPQSVKFKSPDQIDFNRLFTHPVTDLFDPVTMLVYDQYIPLFIDIPASVNPKMVRLKVLSFDTNEQSLGLRLEFFKPDQDTQPNNNVQVNPNNGDFLPLLTASSQGPQTLFSPFNQWPD
notes: source: E. coli B834 (DE3), purified (HisTrap, Superdex 200)
In the case of B1, the binding result in experiment [1] and in experiment [2] was “binds” each time.

B2: P40 polypeptide (from the N-end of P40/P90N to Arg445) (domain or fragment)
chain: SLANTYLLQDHNTLTPYTPFTTPLNGGLDVVRAAHLHPSYELVDWKRVGDTKLVALVRSALVRVKFQDTTSSDQSNTNQNALSFDTQESQKALNGSQSGSSDTSGSNSQDFASYVLIFKAAPRATWVFERKIKLALPYVKQESQGSGDQGSNGKGSLYKTLQDLLVEQPVTPYTPNAGLARVNGVAQDTVHFGSGQESSWNSQRSQKGLKNNPGPKAVTGFKLDKGRAYRKLNESWPVYEPLDSTKEGKGKDESSWKNSEKTTAENDAPLVGMVGSGAAGSASSLQGNGSNSSGLKSLLRSAPVSVPPSSTSNQTLSLSNPAPVGPQAVVSQPAGGATAAVSVNRTASDTATFSKYLNTAQALHQMGVIVPGLEKWGGNNGTGVVASRQDATSTNLPHAAGASQTGLGTGSPREPALTATSQR
notes: source: E. coli B834 (DE3), cleavage product in purified P40/P90N samples
As for B2, the binding result in experiment [3] is on record as “binds”.
